Results on 39 variants are retold here after the RNAGym collection of RNA variant scans (doi:10.7554/elife.80360).

To fix the notation:
B1: CPEB3 Ribozyme (parent)
chain: GGGGGCCACAGCAGAAGCGUUCACGUCGCGGCCCCUGUCAGAUUCUGGUGAAUCUGCGAAUUCUGCUGU

This series covers variants of B1. Kind of series: self-cleavage, relative activity (ratio to wild type); higher = more cleavage; co-transcriptional.
Turning to GGGGGCCACAGCAGAAGCGUUCACGUCGCGGCCCCUGUCAGAUUCUGGUGAUUCUCCGAAUUCUGCUGU [A52U G56C], the self-cleavage amounted to 0.456. Regarding GGGGGCCACAGCAGAAGCGUUCACGUCGCGGCCCCUGUCAGAUUCUGGUGAGUCUGCGACUUCUGCUGU [A52G A60C], the self-cleavage came to 0.336. In the case of GGGGGCCACAGCAGAAGCGUUCACGUCGCGGCCCCUGUCAGAUUCUGGUGAGUCUGCGAGUUCUGCUGU [A52G A60G], the self-cleavage was determined as 0.922. As for GGGGGCCACAGCAGAAGCGUUCACGUCGCGGCCCCUGUCAGAUUCUGGUGAGUCUGCGAACUCUGCUGU [A52G U61C], the self-cleavage was 0.879.

Consider GGGGGCCACAGCAGAAGCGUUCACGUCGCGGCCCCUGUCAGAUUCUGGUGAUUCUGCGAUUUCUGCUGU [A52U A60U], for which the self-cleavage was found to be 0.486. The value for GGGGGCCACAGCAGAAGCGUUCACGUCGCGGCCCCUGUCAGAUUCUGGUGAUUCUGCGACUUCUGCUGU [A52U A60C] was 0.47.

On to GGGGGCCACAGCAGAAGCGUUCACGUCGCGGCCCCUGUCAGAUUCUGGUGAUUCUGCGAGUUCUGCUGU [A52U A60G], for which the self-cleavage is 0.808.

Turning to GGGGGCCACAGCAGAAGCGUUCACGUCGCGGCCCCUGUCAGAUUCUGGUGAGUCUGCGAAUUCUGUUGU [A52G C66U], the self-cleavage is 0.971. The value for GGGGGCCACAGCAGAAGCGUUCACGUCGCGGCCCCUGUCAGAUUCUGGUGAGUCUGCGAAUUCUGAUGU [A52G C66A] was 0.845; that for GGGGGCCACAGCAGAAGCGUUCACGUCGCGGCCCCUGUCAGAUUCUGGUGAUUCUGCGUAUUCUGCUGU [A52U A59U] was 0.803; that for GGGGGCCACAGCAGAAGCGUUCACGUCGCGGCCCCUGUCAGAUUCUGGUGAUUCUGCGGAUUCUGCUGU [A52U A59G] was 0.972. The value for GGGGGCCACAGCAGAAGCGUUCACGUCGCGGCCCCUGUCAGAUUCUGGUGAUUCUGCGCAUUCUGCUGU [A52U A59C] was 0.716. The value for GGGGGCCACAGCAGAAGCGUUCACGUCGCGGCCCCUGUCAGAUUCUGGUGAGUCUGCGAAUUCUGCUGU [A52G] was 0.995; that for GGGGGCCACAGCAGAAGCGUUCACGUCGCGGCCCCUGUCAGAUUCUGGUGAUUCUGCGAAUUCUGCUGU [A52U] was 0.99. GGGGGCCACAGCAGAAGCGUUCACGUCGCGGCCCCUGUCAGAUUCUGGUGAGUCUUCGAAUUCUGCUGU [A52G G56U]: the self-cleavage stood at 0.97. With GGGGGCCACAGCAGAAGCGUUCACGUCGCGGCCCCUGUCAGAUUCUGGUGAGUCUCCGAAUUCUGCUGU [A52G G56C], the self-cleavage came to 0.819. As for GGGGGCCACAGCAGAAGCGUUCACGUCGCGGCCCCUGUCAGAUUCUGGUGAGUCUACGAAUUCUGCUGU [A52G G56A], the self-cleavage was 0.983.

Regarding GGGGGCCACAGCAGAAGCGUUCACGUCGCGGCCCCUGUCAGAUUCUGGUGAUUCUGCGAAUUAUGCUGU [A52U C63A], the self-cleavage is 0.789. Turning to GGGGGCCACAGCAGAAGCGUUCACGUCGCGGCCCCUGUCAGAUUCUGGUGAUUCUGCGAAUUGUGCUGU [A52U C63G], the self-cleavage is 0.72. Turning to GGGGGCCACAGCAGAAGCGUUCACGUCGCGGCCCCUGUCAGAUUCUGGUGAGUCUGCGAAUUCUACUGU [A52G G65A], the self-cleavage came to 0.945. The value for GGGGGCCACAGCAGAAGCGUUCACGUCGCGGCCCCUGUCAGAUUCUGGUGAGUCUGCGAAUUCUGCUAU [A52G G68A] was 1.01; that for GGGGGCCACAGCAGAAGCGUUCACGUCGCGGCCCCUGUCAGAUUCUGGUGAGUCUGCGAAUUCUGCUCU [A52G G68C] was 0.975. As for GGGGGCCACAGCAGAAGCGUUCACGUCGCGGCCCCUGUCAGAUUCUGGUGAUUCUGCGAAUUCUGCGGU [A52U U67G], the self-cleavage is 0.987. Turning to GGGGGCCACAGCAGAAGCGUUCACGUCGCGGCCCCUGUCAGAUUCUGGUGAUUCUGCGAAUUCUGCCGU [A52U U67C], the self-cleavage was 0.915. Take GGGGGCCACAGCAGAAGCGUUCACGUCGCGGCCCCUGUCAGAUUCUGGUGAUUCUGCGAAUUCUACUGU [A52U G65A]: the self-cleavage worked out at 0.783. Consider GGGGGCCACAGCAGAAGCGUUCACGUCGCGGCCCCUGUCAGAUUCUGGUGAGUCUGCGAAUUCAGCUGU [A52G U64A], for which the self-cleavage was 0.911. Take GGGGGCCACAGCAGAAGCGUUCACGUCGCGGCCCCUGUCAGAUUCUGGUGAGUCUGCGAAUUCGGCUGU [A52G U64G]: the self-cleavage was 0.957. On to GGGGGCCACAGCAGAAGCGUUCACGUCGCGGCCCCUGUCAGAUUCUGGUGAGUCUGCGAAUUCCGCUGU [A52G U64C], for which the self-cleavage turned out to be 0.912.

As for GGGGGCCACAGCAGAAGCGUUCACGUCGCGGCCCCUGUCAGAUUCUGGUGACUCUGCGAAUUCUGCUGC [A52C U69C], the self-cleavage was found to be 1.05. The value for GGGGGCCACAGCAGAAGCGUUCACGUCGCGGCCCCUGUCAGAUUCUGGUGACUCUGCGAAUUCUGCUGG [A52C U69G] was 1.05; that for GGGGGCCACAGCAGAAGCGUUCACGUCGCGGCCCCUGUCAGAUUCUGGUGAUUCUGCGAAUUCUGCUUU [A52U G68U] was 0.992; that for GGGGGCCACAGCAGAAGCGUUCACGUCGCGGCCCCUGUCAGAUUCUGGUGAUUCUGCGAAUUCUGCUCU [A52U G68C] was 0.98. Consider GGGGGCCACAGCAGAAGCGUUCACGUCGCGGCCCCUGUCAGAUUCUGGUGAUUCUGCGAAUUCGGCUGU [A52U U64G], for which the self-cleavage is 0.666. As for GGGGGCCACAGCAGAAGCGUUCACGUCGCGGCCCCUGUCAGAUUCUGGUGAUUCUGCGAAUUCCGCUGU [A52U U64C], the self-cleavage was 0.741. The value for GGGGGCCACAGCAGAAGCGUUCACGUCGCGGCCCCUGUCAGAUUCUGGUGACUCUGCGAACUCUGCUGU [A52C U61C] was 0.759; that for GGGGGCCACAGCAGAAGCGUUCACGUCGCGGCCCCUGUCAGAUUCUGGUGACUCUGCGAAGUCUGCUGU [A52C U61G] was 0.67; that for GGGGGCCACAGCAGAAGCGUUCACGUCGCGGCCCCUGUCAGAUUCUGGUGAUUCUGCGAAUUCUGAUGU [A52U C66A] was 0.701. Regarding GGGGGCCACAGCAGAAGCGUUCACGUCGCGGCCCCUGUCAGAUUCUGGUGAUUCUGCGAAUUCUGUUGU [A52U C66U], the self-cleavage came out at 0.973. With GGGGGCCACAGCAGAAGCGUUCACGUCGCGGCCCCUGUCAGAUUCUGGUGAGUCUGCGAAUUCUGCUGA [A52G U69A], the self-cleavage came to 0.985.
